Measured values as given in paper PMC10465538.

Target: MtbFabD3KR-Strep (malonyl CoA-acyl carrier protein transacylase variant that lacks secondary pupylation sites) (Mycobacterium tuberculosis) (UniProt P9WNG5)

| Binder | App. initial pupylation rate (in vitro pupylation of FabD, SDS-PAGE densitometry) [h⁻¹] |
| --- | --- |
| CglPafA K106R, K172R, K302R (proteasome accessory factor A from Corynebacterium glutamicum) (enzyme) STVESALTRRIMGIETEYGLTFVDGDSKKLRPDEIARRMFRPIVEKYSSSNIFIPNGSRLYLDVGSHPEYATAECDNLTQLINFEKAGDVIADRMAVDAEESLAREDIAGQVYLFKNNVDSVGNSYGCHENYLVGRSMPLKALGKRLMPFLITRQLICGAGRIHHPNPLDRGESFPLGYCISQRSDHVWEGVSSATTRSRPIINTRDEPHADSHSYRRLHVIVGDANMAEPSIALKVGSTLLVLEMIEADFGLPSLELANDIASIREISRDATGSTLLSLKDGTTMTALQIQQVVFEHASRWLEQRPEPEFSGTSNTEMARVLDLWGRMLKAIESGDFSEVDTEIDWVIKKKLIDRFIQRGNLGLDDPKLAQVDLTYHDIRPGRGLFSVLQSRGMIKRWTTDEAILAAVDTAPDTTRAHLRGRILKAADTLGVPVTVDWMRHKVNRPEPQSVELGDPFSAVNSEVDQLIEYMTVHAESYRS | 10.4 |
| PafA R137A (enzyme) STVESALTRRIMGIETEYGLTFVDGDSKKLRPDEIARRMFRPIVEKYSSSNIFIPNGSRLYLDVGSHPEYATAECDNLTQLINFEKAGDVIADRMAVDAEESLAREDIAGQVYLFKNNVDSVGNSYGCHENYLVGASMPLKALGKRLMPFLITRQLICGAGRIHHPNPLDRGESFPLGYCISQRSDHVWEGVSSATTRSRPIINTRDEPHADSHSYRRLHVIVGDANMAEPSIALKVGSTLLVLEMIEADFGLPSLELANDIASIREISRDATGSTLLSLKDGTTMTALQIQQVVFEHASRWLEQRPEPEFSGTSNTEMARVLDLWGRMLKAIESGDFSEVDTEIDWVIKKKLIDRFIQRGNLGLDDPKLAQVDLTYHDIRPGRGLFSVLQSRGMIKRWTTDEAILAAVDTAPDTTRAHLRGRILKAADTLGVPVTVDWMRHKVNRPEPQSVELGDPFSAVNSEVDQLIEYMTVHAESYRS | 3.1 |
| PafA K444A (enzyme) STVESALTRRIMGIETEYGLTFVDGDSKKLRPDEIARRMFRPIVEKYSSSNIFIPNGSRLYLDVGSHPEYATAECDNLTQLINFEKAGDVIADRMAVDAEESLAREDIAGQVYLFKNNVDSVGNSYGCHENYLVGRSMPLKALGKRLMPFLITRQLICGAGRIHHPNPLDRGESFPLGYCISQRSDHVWEGVSSATTRSRPIINTRDEPHADSHSYRRLHVIVGDANMAEPSIALKVGSTLLVLEMIEADFGLPSLELANDIASIREISRDATGSTLLSLKDGTTMTALQIQQVVFEHASRWLEQRPEPEFSGTSNTEMARVLDLWGRMLKAIESGDFSEVDTEIDWVIKKKLIDRFIQRGNLGLDDPKLAQVDLTYHDIRPGRGLFSVLQSRGMIKRWTTDEAILAAVDTAPDTTRAHLRGRILKAADTLGVPVTVDWMRHAVNRPEPQSVELGDPFSAVNSEVDQLIEYMTVHAESYRS | 2.65 |
| PafA R218A (enzyme) STVESALTRRIMGIETEYGLTFVDGDSKKLRPDEIARRMFRPIVEKYSSSNIFIPNGSRLYLDVGSHPEYATAECDNLTQLINFEKAGDVIADRMAVDAEESLAREDIAGQVYLFKNNVDSVGNSYGCHENYLVGRSMPLKALGKRLMPFLITRQLICGAGRIHHPNPLDRGESFPLGYCISQRSDHVWEGVSSATTRSRPIINTRDEPHADSHSYARLHVIVGDANMAEPSIALKVGSTLLVLEMIEADFGLPSLELANDIASIREISRDATGSTLLSLKDGTTMTALQIQQVVFEHASRWLEQRPEPEFSGTSNTEMARVLDLWGRMLKAIESGDFSEVDTEIDWVIKKKLIDRFIQRGNLGLDDPKLAQVDLTYHDIRPGRGLFSVLQSRGMIKRWTTDEAILAAVDTAPDTTRAHLRGRILKAADTLGVPVTVDWMRHKVNRPEPQSVELGDPFSAVNSEVDQLIEYMTVHAESYRS | 5.05 |
| PafA R137A, R218A (enzyme) STVESALTRRIMGIETEYGLTFVDGDSKKLRPDEIARRMFRPIVEKYSSSNIFIPNGSRLYLDVGSHPEYATAECDNLTQLINFEKAGDVIADRMAVDAEESLAREDIAGQVYLFKNNVDSVGNSYGCHENYLVGASMPLKALGKRLMPFLITRQLICGAGRIHHPNPLDRGESFPLGYCISQRSDHVWEGVSSATTRSRPIINTRDEPHADSHSYARLHVIVGDANMAEPSIALKVGSTLLVLEMIEADFGLPSLELANDIASIREISRDATGSTLLSLKDGTTMTALQIQQVVFEHASRWLEQRPEPEFSGTSNTEMARVLDLWGRMLKAIESGDFSEVDTEIDWVIKKKLIDRFIQRGNLGLDDPKLAQVDLTYHDIRPGRGLFSVLQSRGMIKRWTTDEAILAAVDTAPDTTRAHLRGRILKAADTLGVPVTVDWMRHKVNRPEPQSVELGDPFSAVNSEVDQLIEYMTVHAESYRS | 0.17 |
| PafA R442A (enzyme) STVESALTRRIMGIETEYGLTFVDGDSKKLRPDEIARRMFRPIVEKYSSSNIFIPNGSRLYLDVGSHPEYATAECDNLTQLINFEKAGDVIADRMAVDAEESLAREDIAGQVYLFKNNVDSVGNSYGCHENYLVGRSMPLKALGKRLMPFLITRQLICGAGRIHHPNPLDRGESFPLGYCISQRSDHVWEGVSSATTRSRPIINTRDEPHADSHSYRRLHVIVGDANMAEPSIALKVGSTLLVLEMIEADFGLPSLELANDIASIREISRDATGSTLLSLKDGTTMTALQIQQVVFEHASRWLEQRPEPEFSGTSNTEMARVLDLWGRMLKAIESGDFSEVDTEIDWVIKKKLIDRFIQRGNLGLDDPKLAQVDLTYHDIRPGRGLFSVLQSRGMIKRWTTDEAILAAVDTAPDTTRAHLRGRILKAADTLGVPVTVDWMAHKVNRPEPQSVELGDPFSAVNSEVDQLIEYMTVHAESYRS | 2.87 |
| PafA site 3 alanine double mutant (R442A, K444A) (enzyme) STVESALTRRIMGIETEYGLTFVDGDSKKLRPDEIARRMFRPIVEKYSSSNIFIPNGSRLYLDVGSHPEYATAECDNLTQLINFEKAGDVIADRMAVDAEESLAREDIAGQVYLFKNNVDSVGNSYGCHENYLVGRSMPLKALGKRLMPFLITRQLICGAGRIHHPNPLDRGESFPLGYCISQRSDHVWEGVSSATTRSRPIINTRDEPHADSHSYRRLHVIVGDANMAEPSIALKVGSTLLVLEMIEADFGLPSLELANDIASIREISRDATGSTLLSLKDGTTMTALQIQQVVFEHASRWLEQRPEPEFSGTSNTEMARVLDLWGRMLKAIESGDFSEVDTEIDWVIKKKLIDRFIQRGNLGLDDPKLAQVDLTYHDIRPGRGLFSVLQSRGMIKRWTTDEAILAAVDTAPDTTRAHLRGRILKAADTLGVPVTVDWMAHAVNRPEPQSVELGDPFSAVNSEVDQLIEYMTVHAESYRS | 2.64 |

Target: MtbPanB-Strep (ketopantoate hydroxymethyltransferase) (Mycobacterium tuberculosis) (UniProt P9WIL7)

| Binder | in vitro pupylation of PanB, reduction against PafA (gel densitometry) [% reduction] |
| --- | --- |
| PafA site 2 triple alanine variant (R137A/R207A/R218A) (enzyme) STVESALTRRIMGIETEYGLTFVDGDSKKLRPDEIARRMFRPIVEKYSSSNIFIPNGSRLYLDVGSHPEYATAECDNLTQLINFEKAGDVIADRMAVDAEESLAREDIAGQVYLFKNNVDSVGNSYGCHENYLVGASMPLKALGKRLMPFLITRQLICGAGRIHHPNPLDRGESFPLGYCISQRSDHVWEGVSSATTRSRPIINTADEPHADSHSYARLHVIVGDANMAEPSIALKVGSTLLVLEMIEADFGLPSLELANDIASIREISRDATGSTLLSLKDGTTMTALQIQQVVFEHASRWLEQRPEPEFSGTSNTEMARVLDLWGRMLKAIESGDFSEVDTEIDWVIKKKLIDRFIQRGNLGLDDPKLAQVDLTYHDIRPGRGLFSVLQSRGMIKRWTTDEAILAAVDTAPDTTRAHLRGRILKAADTLGVPVTVDWMRHKVNRPEPQSVELGDPFSAVNSEVDQLIEYMTVHAESYRS | 70 |

Target: MtbPanB-Strep (ketopantoate hydroxymethyltransferase) (Mycobacterium tuberculosis) (UniProt P9WIL7)
Remark: another data set of the same source

| Binder | in vitro pupylation of PanB, reduction against PafA (gel densitometry) [% reduction] |
| --- | --- |
| PafA R207A (enzyme) STVESALTRRIMGIETEYGLTFVDGDSKKLRPDEIARRMFRPIVEKYSSSNIFIPNGSRLYLDVGSHPEYATAECDNLTQLINFEKAGDVIADRMAVDAEESLAREDIAGQVYLFKNNVDSVGNSYGCHENYLVGRSMPLKALGKRLMPFLITRQLICGAGRIHHPNPLDRGESFPLGYCISQRSDHVWEGVSSATTRSRPIINTADEPHADSHSYRRLHVIVGDANMAEPSIALKVGSTLLVLEMIEADFGLPSLELANDIASIREISRDATGSTLLSLKDGTTMTALQIQQVVFEHASRWLEQRPEPEFSGTSNTEMARVLDLWGRMLKAIESGDFSEVDTEIDWVIKKKLIDRFIQRGNLGLDDPKLAQVDLTYHDIRPGRGLFSVLQSRGMIKRWTTDEAILAAVDTAPDTTRAHLRGRILKAADTLGVPVTVDWMRHKVNRPEPQSVELGDPFSAVNSEVDQLIEYMTVHAESYRS | 50 |
